Reference: article PMC7352312

Columns and labels:
[1] = molecular target: AcSpN A71R mutant (Nephila antipodiana) (Nephila antipodiana); assay: AUC; sedimentation velocity, 1.5 mg/mL protein, 20 mM phosphate, 300 mM NaCl, pH 7.0-8.0 (mutants and MaSpN at pH 7.0), 24 °C; self-association
[2] = molecular target: AcSpN K103E mutant (Nephila antipodiana) (Nephila antipodiana); assay: AUC; sedimentation velocity, 1.5 mg/mL protein, 20 mM phosphate, 0 mM NaCl, pH 7.0-8.0 (mutants and MaSpN at pH 7.0), 24 °C; self-association
[3] = molecular target: AcSpN K122E mutant (Nephila antipodiana) (Nephila antipodiana); assay: AUC; sedimentation velocity, 1.5 mg/mL protein, 20 mM phosphate, 150 mM NaCl, pH ≥ 7.0 (mutants and MaSpN at pH 7.0), 24 °C; self-association
[4] = molecular target: AcSpN R107E mutant (Nephila antipodiana) (Nephila antipodiana); assay: AUC; sedimentation velocity, 1.5 mg/mL protein, 20 mM phosphate, 0 mM NaCl, pH 7.0-8.0 (mutants and MaSpN at pH 7.0), 24 °C; self-association
[5] = molecular target: N-terminal domain of aciniform silk protein (AcSpN) from Nephila antipodiana, construct S15-E153 (renumbered S4-E142) (Nephila antipodiana); assay: AUC; sedimentation velocity, 1.5 mg/mL protein, 20 mM phosphate, 150 mM NaCl, pH < 7.0, 24 °C; self-association
[6] = molecular target: N-terminal domain of aciniform silk protein (AcSpN) from Nephila antipodiana, construct S15-E153 (renumbered S4-E142) (Nephila antipodiana); assay: AUC; sedimentation velocity, 1.5 mg/mL protein, 20 mM phosphate, 300 mM NaCl, pH 5.85 and 5.50, 24 °C; self-association
[7] = molecular target: N-terminal domain of aciniform silk protein (AcSpN) from Nephila antipodiana, construct S15-E153 (renumbered S4-E142) (Nephila antipodiana); assay: AUC; sedimentation velocity, 1.5 mg/mL protein, 20 mM phosphate, 150 mM NaCl, pH ≥ 7.0 (mutants and MaSpN at pH 7.0), 24 °C; self-association
[8] = molecular target: N-terminal domain of major ampullate silk protein (MaSpN) from Nephila antipodiana, construct T1-E137 (Nephila antipodiana); assay: SEC; Superdex 200 Increase 10/300 GL, 20 mM sodium phosphate pH 7.0, 50 mM NaCl, ~600 µM protein injected; self-association
[9] = molecular target: N-terminal domain of major ampullate silk protein (MaSpN) from Nephila antipodiana, construct T1-E137 (Nephila antipodiana); assay: AUC; sedimentation velocity, 1.5 mg/mL protein, 20 mM phosphate, 0 mM NaCl, pH 7.0-8.0 (mutants and MaSpN at pH 7.0), 24 °C; self-association

“AcSpN A71R mutant (Nephila antipodiana) (domain or fragment)” gave a percent in a dimeric form [1] of 10%.

For “AcSpN K103E mutant (Nephila antipodiana) (domain or fragment)”, the stoichiometry N [2] was 2.

“AcSpN K122E mutant (Nephila antipodiana) (domain or fragment)” gave a stoichiometry N [3] of 2.

“AcSpN R107E mutant (Nephila antipodiana) (domain or fragment)” gave a stoichiometry N [4] of 2.

For “N-terminal domain of aciniform silk protein (AcSpN) from Nephila antipodiana, construct S15-E153 (renumbered S4-E142) (domain or fragment)”, the stoichiometry N [5] was 2, the stoichiometry N [6] was 2 and the stoichiometry N [7] was 2.

In the case of “N-terminal domain of major ampullate silk protein (MaSpN) from Nephila antipodiana, construct T1-E137 (domain or fragment)”, the stoichiometry N [8] is reported as 2 and the stoichiometry N [9] is reported as 2.
